Consider 1 sequence from patent publication US20170122849.

The test system of this data set is (KW)2KKA-eGFP-AKK(WK)2 (DNA-staining eGFP) (synthetic construct (eGFP from Aequorea victoria?)). Description: EMSA. The note with it: about; apparent Kd; TE/glycerol, 0.5x TBE 4-20% gel, EtBr stain. Background: In EMSA bound probe runs differently from free probe, usually more slowly.

“CTACTAGCACAATCGACTGTACGGACCGATCGAGTCACTAGCAGTCTAGCAA (double strand) [52-mer random sequence dsDNA]”: the Kd was 14.7 µM.
